Test results from patent US20160060320A1 (UNIVERSITY OF COPENHAGEN, published 2016).
Ends that are not written are not given here.

B1: Neuropeptide Y (NPY; NPY1-36; full-length NPY) (peptide)
peptide: not shown
modifications: Tyr36 amidated
B2: NPY21-36 (peptide)
peptide: YSALRHYINLITRQRY-NH2
B3: NPY23-36 (peptide)
peptide: ALRHYINLITRQRY-NH2
B4: NPY23-36 ala36 (peptide)
peptide: ALRHYINLITRQRA
modifications: ends and bridges not checked
B5: NPY25-36 (peptide)
peptide: RHYINLITRQRY-NH2
B6: NPY27-36 (peptide)
peptide: YINLITRQRY-NH2
B7: NPY31-36 (peptide)
peptide: ITRQRY-NH2
modifications: also: Tyr36 (pos 6): amidated per mods, acetylation
B8: NPY3-35 reversed sequence (peptide)
peptide: RQRTILNIYHRLASYYRAMDEAPADEGPNDPKS
B9: NPY13-35 (peptide)
peptide: PAEDMARYYSALRHYINLITRQR
B10: NPY21-35 (peptide)
peptide: YSALRHYINLITRQR
B11: NPY21-35 ala21 (peptide)
peptide: ASALRHYINLITRQR
B12: NPY1-20 (peptide)
peptide: YPSKPDNPGEDAPAEDMARY
B13: NPY22-35 (peptide)
peptide: SALRHYINLITRQR
B14: NPY23-35 (peptide)
peptide: ALRHYINLITRQR
B15: NPY24-35 (peptide)
peptide: LRHYINLITRQR
B16: NPY21-34 (peptide)
peptide: YSALRHYINLITRQ

molecular target: NCAM on rat hippocampal neurons (rat, UniProt P13596 20-858); test: cell-based or functional assay
Sequence (P13596 20-858): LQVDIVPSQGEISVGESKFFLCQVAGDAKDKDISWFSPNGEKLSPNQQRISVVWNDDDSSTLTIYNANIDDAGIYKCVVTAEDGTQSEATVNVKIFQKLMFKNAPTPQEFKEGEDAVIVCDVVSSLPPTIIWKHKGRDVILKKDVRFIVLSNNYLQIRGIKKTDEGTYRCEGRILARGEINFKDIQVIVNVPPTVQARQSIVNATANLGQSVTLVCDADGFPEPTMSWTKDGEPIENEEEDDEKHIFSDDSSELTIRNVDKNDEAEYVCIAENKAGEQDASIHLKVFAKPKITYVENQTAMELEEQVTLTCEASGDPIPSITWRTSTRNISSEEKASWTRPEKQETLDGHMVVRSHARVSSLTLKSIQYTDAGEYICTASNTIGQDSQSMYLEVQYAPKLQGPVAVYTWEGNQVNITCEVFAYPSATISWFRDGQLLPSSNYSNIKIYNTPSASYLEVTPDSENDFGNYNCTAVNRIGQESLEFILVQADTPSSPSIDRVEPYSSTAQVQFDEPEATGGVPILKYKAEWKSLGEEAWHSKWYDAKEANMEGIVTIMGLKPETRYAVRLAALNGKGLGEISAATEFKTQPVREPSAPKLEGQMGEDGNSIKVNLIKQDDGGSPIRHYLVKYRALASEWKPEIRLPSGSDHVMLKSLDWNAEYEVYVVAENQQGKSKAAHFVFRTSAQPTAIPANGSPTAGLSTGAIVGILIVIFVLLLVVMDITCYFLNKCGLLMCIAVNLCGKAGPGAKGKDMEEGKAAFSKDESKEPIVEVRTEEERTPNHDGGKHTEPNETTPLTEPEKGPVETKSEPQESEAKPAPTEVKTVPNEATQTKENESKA

B1 was tested. Which “Neuritogenic effect, 1 µM NPY fragment (% of control)” value did it give?
Its value is 166 % of control.

What about the “Neuritogenic effect, 3 µM NPY fragment (% of control)” value of the same binder?
Its value is 180 % of control.

With B2 as the binder, how does the “Neuritogenic effect, 1 µM NPY fragment (% of control)” value read?
Its value is 108 % of control.

And the “Neuritogenic effect, 3 µM NPY fragment (% of control)” value?
The value was 186 % of control.

How did the “Neuritogenic effect, 1 µM NPY fragment (% of control)” value turn out when B3 was run?
The value was 107 % of control.

What about the “Neuritogenic effect, 3 µM NPY fragment (% of control)” value of the same binder?
Its value is 156 % of control.

B4 was tested. Which “Neuritogenic effect, 1 µM NPY fragment (% of control)” value did it give?
Its value is 89.1 % of control.

What about the “Neuritogenic effect, 3 µM NPY fragment (% of control)” value of the same binder?
Its value is 91.7 % of control.

B5 was tested. Which “Neuritogenic effect, 1 µM NPY fragment (% of control)” value did it give?
Its value is 95.9 % of control.

What about the “Neuritogenic effect, 3 µM NPY fragment (% of control)” value of the same binder?
Its value is 96.1 % of control.

With B6 as the binder, how does the “Neuritogenic effect, 1 µM NPY fragment (% of control)” value read?
The value was 107 % of control.

What about the “Neuritogenic effect, 3 µM NPY fragment (% of control)” value of the same binder?
The value was 99.1 % of control.

Which results are given for B7?
Neuritogenic effect, 1 µM NPY fragment (% of control): 100 % of control; Neuritogenic effect, 3 µM NPY fragment (% of control): 91.8 % of control

How did the “Neuritogenic effect, 1 µM NPY fragment (% of control)” value turn out when B8 was run?
The value was 110 % of control.

And the “Neuritogenic effect, 3 µM NPY fragment (% of control)” value?
The value was 285 % of control.

For B9, which “Neuritogenic effect, 1 µM NPY fragment (% of control)” value is on record?
Its value is 174 % of control.

What about the “Neuritogenic effect, 3 µM NPY fragment (% of control)” value of the same binder?
Its value is 305 % of control.

Which results are given for B10?
Neuritogenic effect, 1 µM NPY fragment (% of control): 154 % of control; Neuritogenic effect, 3 µM NPY fragment (% of control): 233 % of control

Which results are given for B11?
Neuritogenic effect, 1 µM NPY fragment (% of control): 95.4 % of control; Neuritogenic effect, 3 µM NPY fragment (% of control): 94.1 % of control

Which results are given for B12?
Neuritogenic effect, 1 µM NPY fragment (% of control): 97.8 % of control; Neuritogenic effect, 3 µM NPY fragment (% of control): 99.1 % of control

B13 was tested. Which “Neuritogenic effect, 1 µM NPY fragment (% of control)” value did it give?
Its value is 104 % of control.

And the “Neuritogenic effect, 3 µM NPY fragment (% of control)” value?
Its value is 91.4 % of control.

With B14 as the binder, how does the “Neuritogenic effect, 1 µM NPY fragment (% of control)” value read?
Its value is 96.2 % of control.

And the “Neuritogenic effect, 3 µM NPY fragment (% of control)” value?
The value was 104 % of control.

With B15 as the binder, how does the “Neuritogenic effect, 1 µM NPY fragment (% of control)” value read?
Its value is 96.9 % of control.

What about the “Neuritogenic effect, 3 µM NPY fragment (% of control)” value of the same binder?
The value was 103 % of control.

B16 was tested. Which “Neuritogenic effect, 1 µM NPY fragment (% of control)” value did it give?
Its value is 87.7 % of control.

And the “Neuritogenic effect, 3 µM NPY fragment (% of control)” value?
The value was 97.5 % of control.
